The conditions of series [1]: biotin; monomer at low pH and protein concentrations; cited from earlier work.
Series [2] is described as follows: Fluorescence polarization spectroscopy, biotin dissociation rate (koff). It is filed as binding. To be noted: 37° C. As to the method:
(§1) FIG. 4. In vitro characterization of purified mSA mutants. a) Stability of mSA-RF and mSA-RWT in PBS was measured by circular dichroism spectroscopy with or without biotin. b) Fluorescence polarization spectroscopy was used to measure the dissociation rate of biotin-fluorescein. The dissociation rate, koff, was computed by fitting normalized fluorescence polarization data, or bound fraction f, to an exponentially decaying function, i.e. ƒ=e^−k^off^*t The measurements were taken at 37° C. c) The equilibrium affinity of binding Kd between mSA-RF and biotin-fluorescein was measured by FP. d) mSA-S25H and mSA-RF were analyzed by size exclusion chromatography to estimate their molecular weights in solution. Each mutant eluted with a retention time that was consistent with monomeric streptavidin. The molecular weight standards (arrows) correspond to 66.0, 29.0, 12.4 and 6.5 kDa from left to right.
The binding of biotinylated fluorescein (bf, AnaSpec) was measured using a microplate reader (SpectraMax® i3 Microplate reader from Molecular Devices) in flat bottom 96 well plates (Sterilin Ltd). To measure Kd, 100 nM bf was first mixed with titrating amounts of mSA in PBS containing 0.1 mg/ml bovine serum albumin (BSA). After overnight incubation at room temperature, the fluorescence polarization values were measured and fit to the quadratic binding equation (Hsu and Park, 2010, J Mol Graph Model, 29, 295-308). To measure the off rate (koff), 10 nM bf was first mixed with 50 nM mSA and incubated for 2 hr to form a biotin-mSA complex. To observe dissociation of bf, excess free biotin was added to a final concentration of 100 μM and recording of fluorescence was started immediately. The intensity of polarized fluorescence was measured at various time points and normalized with respect to the value at t=0 min. The intensities were fit to an exponentially decaying function e^−k^off^*t to compute koff. The dissociation half-life t1/2=0.693/koff.
We measured the biotin dissociation rate of various mSA mutants by fluorescence polarization spectroscopy. Table 2 presents the biotin dissociation rate (koff) of various mutants measured by fluorescence polarization spectroscopy. The S25R mutation lowered koff by nearly 21 fold compared to the original mSA and 3.3 fold compared to the S25H mutant (Table 2, FIG. 4b).
On the technique in general: Fluorescence polarisation rises when a labelled molecule tumbles more slowly, as on binding a larger partner.

Series [3] in a line: Circular dichroism spectroscopy, thermal denaturation. The series is classed as physicochemical. Here is the method: as §1
FIG. 8. Circular dichroism spectra of mSA-RF after low pH treatment to release bound biotin is shown in a). mSA-RF was first buffer exchanged to 100 mM glycine (pH 2.3) and then back to PBS (pH 7.5) before CD analysis. The spectra obtained at temperatures 30, 40, 50, 60, 70, and 80° C. were overlaid. The spectra at lower temperatures were colored darker than the spectra at higher temperatures, i.e. the darkest for 30° C. and the lightest for 80° C. The CD values at 235 nm (from FIG. 8a) were used to compute the unfolded fraction shown in b).
FIG. 9. To evaluate the importance of the biotin additive, mSA was induced without biotin in the medium as shown in a). The culture medium was then pH adjusted to 7.5 and poured over Ni-NTA resin, which immediately turned brown (not shown). 1. Culture medium, 2. Flow through after Ni-NTA, 3. Wash, 4. Elution. The amount of purified mSA was approximately 20% of the expressed protein. (*) mSA. Thermal denaturation of mSA-RF purified with (circle) and without (square) biotin in the medium is shown in b).
Purified mSA was diluted to 15 μM in PBS and loaded in a quartz cuvette with 1.0 mm path length. […]
(CD spectra are sensitive to the conformation of chiral molecules.)

Series [4] is described as follows: Fluorescence polarization spectroscopy, equilibrium affinity Kd. The conditions noted are these: biotin-fluorescein, overnight incubation at room temperature, PBS 0.1 mg/ml BSA; read-out: equilibrium binding constant Kd. As to the method:
as §1, with “Each mutant eluted with a retention time that was consistent with monomeric streptavidin. The molecular weight standards (arrows) correspond to 66.0, 29.0, 12.4 and 6.5 kDa from left to right.” left out
The binding of biotinylated fluorescein (bf, AnaSpec) was measured using a microplate reader (SpectraMax® i3 Microplate reader from Molecular Devices) in flat bottom 96 well plates (Sterilin Ltd). […] After overnight incubation at room temperature, the fluorescence polarization values were measured and fit to the quadratic binding equation (Hsu and Park, 2010, J Mol Graph Model, 29, 295-308). […] To observe dissociation of bf, excess free biotin was added to a final concentration of 100 μM and recording of fluorescence was started immediately. The intensity of polarized fluorescence was measured at various time points and normalized with respect to the value at t=0 min. […]

Series [5] concerns HEK293 cells displaying biotinylated AP-CFP. Description: Fluorescent labeling of cell surface biotinylated receptor, confocal microscopy. It is filed as cell-based. From the text:
FIG. 5. Fluorescent labeling of HEK293 cells displaying biotinylated receptor. a) HEK293 cells displaying biotinylated AP-CFP were labeled with Alexa488-conjugated mSA-RWT and imaged by fluorescence microscopy. Fluorescence was filtered for (i) CFP and (ii) Alexa488 and the same field of vision was imaged multiple times at regular intervals to measure the stability of labeling. iii. DIC. mSA-RWT binds only CFP positive cells, indicating high specificity of interaction. b-c) HEK293 displaying unrelated protein fused to CFP b) or untransfected HEK293 c) were treated with purified BirA and then labeled with fluorescent mSA-RWT as in part (a) (i)-(iii) the same as before. d) The captured fluorescence images of mSA-RWT—Alexa488 labeled cells (in jpg format) were loaded into MatLab and the amount of CFP and Alexa488 fluorescence was quantified by summing over pixel values. The fluorescence intensity was normalized with respect to the value at t=0. e) Cells labeled with mSA-RF—EGFP were similarly imaged and analyzed to determine the time dependent loss of mSA labeling.
Adherent HEK293 cells were seeded in a 24 well plate (Becton Dickinson) and grown in DMEM supplemented with 10% FBS and antibiotic/antimycotic (Invitrogen). At 50% confluency, the cells were transfected with a plasmid containing pDisplay-AP-CFP-TM. After 2 days the wells were supplemented with 100 nM purified BirA, 5 mM ATP, and 0.3 mM biotin and the biotinylation reaction was carried out overnight. The following morning, the cells were detached from the wells using EDTA Solution (Versene from Life Technologies), washed with PBS containing 0.1% w/v BSA (PBSF), and fixed in 4% paraformaldehyde solution. Prior to microscopy, cells were labeled with 1 μM mSA-RWT—Alexa488 or 1 μM mSA-RF—EGFP in PBSF for 30 minutes. Excess protein was washed away and cells were switched to PBSF with 0.9 mM biotin. Each sample was mounted on slides and imaged using confocal microscopy. The same field of view was imaged every 10 min for 60 min to quantify fluorescence loss as a function of time. The captured images were analyzed with microscope software (ZEN from Zeiss, and MatLab® from MathWorks).
We tested the use of mSA-RWT or mSA-RF in cell imaging, in which biotinylated proteins on the cell surface were labeled with Alexa488 conjugated mSA-RWT or mSA-RF fused to EGFP, and imaged by fluorescence confocal microscopy. Cell imaging is an important test of whether engineered mutants can specifically interact with biotinylated ligands in a heterogeneous environment, in which other potentially competing interactions can interfere with desired detection. […]
To evaluate the stability of labeling, we imaged the labeled cells repeatedly over 1 hr and quantified the fluorescence intensity of Alexa488 or GFP at regular intervals. […]

Values joined by “and” are separate entries in the source; they are usually repeats but may differ in a detail not shown here. Identical values can stand only once. Like-named read-outs stand apart in the source and are kept apart here.

Broadly, the Kd is the constant that tells how readily two partners part at equilibrium.

B1: Brad2: bradavidin 2, streptavidin homolog, SEQ ID NO: 21 (protein, listed as Bradyrhizobium japonicum)
chain: QGLPAPSYWKNERGSELLIWSANSGTIQGTFTNHAQGFACQGIPYPAAGSVSPTGLYFVVTFAQCNSFTRWVGTIKGSQMPTSWTLFYVDNKGKPSRLKGGDIFTRVW
In the case of B1, the Kd in series [1] is less than 0.1 nM.

B2: mSA-RF: monomeric streptavidin mutant SEQ ID NO: 3, S25R and T48F (protein)
chain: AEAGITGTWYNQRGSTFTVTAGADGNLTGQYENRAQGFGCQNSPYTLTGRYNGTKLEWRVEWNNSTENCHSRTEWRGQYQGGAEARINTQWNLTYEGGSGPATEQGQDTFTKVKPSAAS
modifications: Modified streptavidin
Regarding B2, the “t1/2” value in series [2] (dissociation half-life t1/2=0.693/koff, biotin-fluorescein) is 6.7 h and 6.7 ± 0.3 h. Also, in series [2] (dissociation of biotin-fluorescein, excess free biotin 100 μM), the “Koff(×10^−3 min^−1)” value is reported as 1.73 ± 0.79 ×10^−3 min^−1. The molecule further returned a denaturation temperature in series [3] (after low pH treatment (100 mM glycine pH 2.3) and exchange back to PBS pH 7.5) of 60 °C. For the same molecule, the thermal unfolding behaviour entry is listed as “clear two state unfolding transition” in series [3] (protein purified with biotin in the medium) and “does not show such transition” in series [3] (protein purified without biotin in the medium). Besides, in series [4], the Kd came to 1.3 nM. In series [5] (after 1 hr, 900 μM biotin in the labeling solution), the “Alexa488/GFP fluorescence of labeled cells over time” value is on record as “remained high”. In series [5] (fixed HEK293 cells, 1 μM for 30 minutes), the “labeling of cells displaying biotinylated AP-CFP” value is recorded as “Only CFP positive cells were labeled selectively”.

The values are drawn from patent US10759835B2, “Monomeric streptavidin mutants, methods of using the same and processes of manufacturing proteins” (The Research Foundation for The State University of New York, priority 2016, dated 2020).
